Reference: publication PMC3315512, “The Lid Domain of Caenorhabditis elegans Hsc70 Influences ATP Turnover, Cofactor Binding and Protein Folding Activity” (PLoS ONE, 2012)

Experiments:
[1] = biological target: T1, His6-CeHsc70 (Caenorhabditis elegans Hsc70, HSP-1) (C. elegans, UniProt P09446 1-640); assay: cell-based or functional assay
[2] = biological target: T1, His6-CeHsc70 (Caenorhabditis elegans …); assay: AUC; competition: 15 µM BAG-1 added to 300 nM *DNJ-13, 3 µM CeHsc70 and 4 mM ATP; sedimentation velocity with fluorescence detection; dc/dt analysis; conditions: both partners purified
[3] = biological target: the molecule itself; assay: AUC; sedimentation velocity with fluorescence detection, 300 nM *DNJ-13 alone, 20°C, 42 000 rpm; whole boundary fitting and C(s) (UltraScan)

T1 sequence (P09446 whole entry): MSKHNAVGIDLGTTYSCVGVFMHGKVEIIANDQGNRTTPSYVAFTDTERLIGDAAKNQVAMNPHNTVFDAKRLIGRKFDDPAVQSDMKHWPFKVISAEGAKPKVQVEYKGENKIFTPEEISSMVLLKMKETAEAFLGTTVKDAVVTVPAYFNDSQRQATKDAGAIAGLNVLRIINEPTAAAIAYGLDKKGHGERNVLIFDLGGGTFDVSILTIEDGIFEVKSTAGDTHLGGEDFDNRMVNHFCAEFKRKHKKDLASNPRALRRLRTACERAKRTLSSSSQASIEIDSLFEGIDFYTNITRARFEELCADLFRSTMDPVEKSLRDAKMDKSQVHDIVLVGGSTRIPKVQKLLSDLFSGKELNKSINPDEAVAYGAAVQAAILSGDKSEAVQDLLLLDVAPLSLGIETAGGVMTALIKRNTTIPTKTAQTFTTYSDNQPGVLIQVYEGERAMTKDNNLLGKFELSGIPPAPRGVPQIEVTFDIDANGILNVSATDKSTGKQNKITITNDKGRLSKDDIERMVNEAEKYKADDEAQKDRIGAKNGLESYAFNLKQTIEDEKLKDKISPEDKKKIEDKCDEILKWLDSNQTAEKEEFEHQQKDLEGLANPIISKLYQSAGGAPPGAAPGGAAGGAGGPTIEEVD

B1: DNJ-13 (C. elegans, unlabelled) (natural protein)
chain: not shown
apparent KD of DNJ-13 from titration of the steady-state ATPase activity of 1 µM CeHsc70 in the presence of 2 µM BAG-1, standard buffer, 25°C [1]: 6.8 µM

B2: BAG-1 (C. elegans, unlabelled) (natural protein, UniProt O44739 1-210, looked up)
chain: MKVNVSCSSVQTTIDILEENQGEDESILTLGQLRDRIATDNDVDVETMKLLHRGKFLQGADDVSLSTLNFKENDKIIVMGGKNALVDDAGFKMLMQYEKHNLSNLQKAYDLNLRDVADLERGFLEKPKQVEMGKKLEKKVKYFNEEAERHLETLDGMNIITETTPENQAKRNREKRKTLVNGIQTLLNQNDALLRRLQEYQSVLNGDIPE
notes: BAG-1, nucleotide exchange factor of C. elegans, full-length, cloned from a C. elegans cDNA preparation; a His tag is surmised from the HisTrap column; also called nematodal BAG-1; source: E. coli BL21-CodonPlus (DE3)-RIL, purified (HisTrap, ResourceQ, Superdex 75)
binding result [2]: binds

B3: *DNJ-13 (C. elegans DNJ-13 labelled with carboxyfluorescein) (natural protein)
chain: not shown
modifications: 5-(and-6)-carboxyfluorescein succinimidylester, preferential labeling at the N-terminal amine group (labelling efficiency 1.2)
notes: DNJ-13, Hsp40-like J-domain protein of C. elegans (Sis1 / DNAJB homolog); also called fluorescently labeled DNJ-13; source: E. coli BL21-CodonPlus (DE3)-RIL, purified (HisTrap, ResourceS, Superdex 75), then labelled
stoichiometry N [3]: 2
